Source: patent EP4480964A1, “TRANSFERRIN RECEPTOR-BINDING MOLECULES, CONJUGATES THEREOF AND THEIR USES TO PREVENT OR TREAT MUSCULAR DISEASES” (Vect-Horus, priority 2023, dated 2024)

Columns and labels:
[1] = system: rhTfR; experiment: Competition assay with fluorescent reference C5-Alexa680 on living CHO-rhTfR-GFP cells; format: binding; conditions: cells expressing macaque rhesus TfR (CHO-rhTfR-GFP), C5-Alexa680 100 nM, 3 hrs at 37°C; Ki similar or lower than free VHHs
Protocol: (§1) The binding of VHH-Oligo conjugates to mTfR, rhTfR and hTfR was evaluated using a competition assay on living cells expressing the receptor of interest, namely murine neuroblastoma Neuro-2a cells (N2a), CHO cells genetically engineered by the inventors to stably express the macaque rhesus TfR fused to the eGFP protein in C-terminal (CHO-rhTfR-GFP cells), or human breast ductal carcinoma MCF-7 cells, respectively. MCF-7 and N2a cells were grown in Dulbecco's Modified Eagle Medium (DMEM) GlutaMAX supplemented with 10% v/v FBS in 5% CO2 at 37°C. CHO-rhTfR-GFP cells were grown in Ham F12 GlutaMAX supplemented with 10% v/v FBS in 5% CO2 at 37°C. Cells were seeded two days before experiments in 96-well plates at a density of 50.000 cells/well. On the day of the experiment, free VHHs or VHH-Oligo conjugates diluted at various concentrations in DMEM supplemented with 1% bovine serum albumin (BSA) (MCF-7 and N2a cells) or in Ham F12 supplemented with 1% BSA (CHO-rhTfR-GFP cells) were co-incubated at various concentrations on each cell line during 3 hrs at 37°C with a subsaturating concentration of the fluorescent reference compound C5-Alexa680 (100 nM on N2a and CHO-rhTfR-GFP cell lines, 10 nM on MCF-7 cells). After treatment, cells were washed with D-PBS and dissociated by incubating with Trypsin/EDTA for 5 mins at 37°C, before the addition of cold culture media (4°C) to inhibit Trypsin activity. Resuspended cells were transferred in a 96-deepwell plate (V-bottom) containing 1% fetal bovine serum (FBS) / 0.02% sodium azide in phosphate-buffered saline (PBS) and then centrifuged for 5 min at 2000 rpm at 4°C. After removing the supernatant, 5 mM EDTA in D-PBS and 4% paraformaldehyde (PFA) (v/v 1:1) were added into wells to fix cells for 15 min at room temperature. PFA was removed by centrifugation (5 min, 3000 rpm, 4°C) and cells were resuspended with 5 mM EDTA in D-PBS. Then the cellular A680-associated fluorescence signal was quantified using an Attune™ NxT flow cytometer (Thermo Fisher Scientific) equipped with Attune™ NxT v3.1.2. Experimental data (experimental triplicates) were fitted with GraphPad Prism® software using a nonlinear fit to determine the apparent Ki inhibition constants. Graphs of Figure 1 show representative inhibition curves and tables show means ± SD of at least 2 independent experiments.

[2] = molecular target: T1, hTfR (Homo sapiens, UniProt P02786); experiment: Competition assay with fluorescent reference C5-Alexa680 on living MCF-7 cells; format: binding; conditions: cells expressing human TfR (MCF-7), C5-Alexa680 10 nM, 3 hrs at 37°C; Ki similar or lower than free VHHs
T1 construct: or human breast ductal carcinoma MCF-7 cells, respectively; endogenous in cells; host or cells: MCF-7 human breast ductal carcinoma cells
T1 sequence (P02786 whole entry): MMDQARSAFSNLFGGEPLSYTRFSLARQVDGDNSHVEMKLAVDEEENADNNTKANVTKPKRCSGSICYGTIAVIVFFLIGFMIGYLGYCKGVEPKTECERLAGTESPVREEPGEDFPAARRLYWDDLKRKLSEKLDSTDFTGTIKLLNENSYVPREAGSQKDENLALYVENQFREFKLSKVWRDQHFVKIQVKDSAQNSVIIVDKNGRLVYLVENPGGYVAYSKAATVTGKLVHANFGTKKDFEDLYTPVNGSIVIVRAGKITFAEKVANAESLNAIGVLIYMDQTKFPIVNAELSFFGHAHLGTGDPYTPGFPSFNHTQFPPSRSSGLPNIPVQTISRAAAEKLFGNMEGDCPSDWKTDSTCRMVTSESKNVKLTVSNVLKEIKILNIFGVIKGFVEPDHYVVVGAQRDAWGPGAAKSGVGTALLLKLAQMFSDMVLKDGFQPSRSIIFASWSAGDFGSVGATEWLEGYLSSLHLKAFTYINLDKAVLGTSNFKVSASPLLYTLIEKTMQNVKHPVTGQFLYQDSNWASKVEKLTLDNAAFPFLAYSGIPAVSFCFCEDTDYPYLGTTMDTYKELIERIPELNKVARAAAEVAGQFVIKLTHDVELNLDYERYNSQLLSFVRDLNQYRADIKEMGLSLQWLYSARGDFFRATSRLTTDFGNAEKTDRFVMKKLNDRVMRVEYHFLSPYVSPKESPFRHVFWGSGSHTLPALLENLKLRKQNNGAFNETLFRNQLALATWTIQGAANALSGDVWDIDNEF
Protocol: as §1

[3] = molecular target: T2, mTfR (Mus musculus, UniProt Q62351); experiment: Competition assay with fluorescent reference C5-Alexa680 on living Neuro-2a cells; format: binding; conditions: cells expressing murine TfR (Neuro-2a), C5-Alexa680 100 nM, 3 hrs at 37°C; Ki similar or lower than free VHHs
T2 construct: living cells expressing the receptor of interest, namely murine neuroblastoma Neuro-2a cells (N2a); endogenous in cells; host or cells: Neuro-2a (N2a) murine neuroblastoma cells
T2 sequence (Q62351 whole entry): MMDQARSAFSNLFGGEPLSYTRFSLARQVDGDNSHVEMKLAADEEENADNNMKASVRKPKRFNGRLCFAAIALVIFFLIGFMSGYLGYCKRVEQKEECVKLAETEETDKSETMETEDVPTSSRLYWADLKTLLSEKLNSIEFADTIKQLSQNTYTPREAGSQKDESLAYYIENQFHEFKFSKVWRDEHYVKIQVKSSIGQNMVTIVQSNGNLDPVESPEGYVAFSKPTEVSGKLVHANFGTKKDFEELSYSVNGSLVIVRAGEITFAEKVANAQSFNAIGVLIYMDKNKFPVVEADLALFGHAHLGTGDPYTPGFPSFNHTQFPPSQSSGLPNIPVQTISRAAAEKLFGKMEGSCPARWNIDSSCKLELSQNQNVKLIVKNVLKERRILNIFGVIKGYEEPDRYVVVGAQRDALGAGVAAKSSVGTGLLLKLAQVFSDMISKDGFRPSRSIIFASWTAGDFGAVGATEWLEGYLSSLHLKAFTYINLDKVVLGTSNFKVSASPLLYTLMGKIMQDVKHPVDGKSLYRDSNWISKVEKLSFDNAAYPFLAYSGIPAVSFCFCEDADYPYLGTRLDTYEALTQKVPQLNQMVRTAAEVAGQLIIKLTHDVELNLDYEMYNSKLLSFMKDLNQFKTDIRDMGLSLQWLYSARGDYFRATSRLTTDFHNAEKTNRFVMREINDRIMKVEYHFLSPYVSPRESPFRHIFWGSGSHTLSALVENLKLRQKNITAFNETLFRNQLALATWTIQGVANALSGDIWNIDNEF
Protocol: as §1

[4] = system: SOD1 mRNA; experiment: In vivo mRNA knock-down by VHH-siSOD1h conjugate in non-human primates; set-up: species or system olive baboons (Papio Anubis)
Protocol: VHH-siSOD1h conjugates targeting the human and non-human primate (NHP) SOD1 gene were assessed for their ability to mediate SOD1 mRNA knock-down in muscle tissues of olive baboons (Papio Anubis). PBS vehicle (control) or a TfR-binding VHH-siSOD 1h conjugate was administered as a single intravenous (IV infusion, 30 min) in olive baboons (males, 10-17-month-old, 2.6-4.5kg) at the dose of 5 mg/kg (siRNA molar equivalent). At indicated times following administration, approximately 100 mg samples of gastrocnemius, quadriceps and tibialis anterior muscle were withdrawn under general anesthesia, snap-frozen in 10 vol. ofNucleoProtect RNA stabilization reagent (Macherey-Nagel) and stored at -20°C. […] RNA samples were analyzed and dosed using a Fragment Analyzer RNA kit in a Fragment Analyzer system (Agilent). Relative RNA expression levels were quantified by RT-qPCR using the TaqMan™ Fast Universal PCR Master Mix (2X) no AmpErase™ UNG kit (Applied Biosystems) and commercially available TaqMan™ probes for […] and RpL13 genes (Applied Biosystems). Expression data were analyzed using the DDCq method normalized to the expression of the reference RpL13 gene, based on raw quantification cycle (Cq) values (Bustin et al.). The results are expressed as means ± standard error of the mean (SEM) and are presented as mRNA levels relative to the control animals injected with PBS. […]

[5] = system: hSOD1 mRNA; experiment: Free uptake gene silencing (RT-qPCR) in human cell lines; format: cell-based; conditions: 3 days, various human cell lines (Figure 2A)
Protocol: Human cell lines MCF-7 (breast ductal carcinoma cells), Igrov-1 (ovarian cancer cells) and MIA PaCa-2 cells (pancreatic cancer cells) and the murine neuroblastoma cell line Neuro-2a were grown in DMEM GlutaMAX supplemented with 10% v/v FBS in 5% CO2 at 37°C. For free uptake experiments, cells were seeded in 96-well plates at a density of 2.000 cells/well. Twenty-four hours later, the medium was removed, and cells were further incubated during 3 days in DMEM supplemented with 1% v/v FBS containing various concentrations of free or conjugated oligos. […] Relative RNA expression levels were quantified by RT-qPCR using the TaqMan™ Fast Universal PCR Master Mix (2X) no AmpErase™ UNG kit (Applied Biosystems) and commercially available TaqMan™ probes for murine SOD1, human SOD1 or human MALAT-1 genes (Applied Biosystems). Expression data were analyzed using the DDCq method normalized to the expression of reference RpL 13 or GAPDH genes, based on raw quantification cycle (Cq) values (Bustin et al.) and are presented as mRNA levels relative to untreated cells. Experimental data (experimental triplicates) are presented as means ± standard deviation (SD) and were analysed with GraphPad Prism® software using a three-parameter log(inhibitor) vs. response nonlinear regression to determine the IC50. […]

Molecule	inhibition of the binding and uptake of the reference compound [2]	inhibition of the binding and uptake of the reference compound [3]	inhibition of the binding and uptake of the reference compound [1]	knock-down of SOD1 mRNA ([4]; all muscle tissues tested (gastrocnemius, quadriceps, tibialis anterior), single IV infusion 5 mg/kg (siRNA molar equivalent) (Figure 12))	duration of knock-down ([4]; single IV infusion 5 mg/kg (siRNA molar equivalent))	effect on hSOD1 mRNA levels [5]
C5-siSOD1m: VHH-Oligo conjugate of VHH C5 and siSOD1m (conjugate, left off: things letters cannot carry; small tags and cut ends) VHH: EVQLVESGGGVVQPGGSLKLSCVASGTDFSINFIRWYRQAPGKQREFVAGFTATGNTNYADSMKGRFTISRDNTKNAVYLQIDSLKPEDTAVYYCYMLDKWGQGTQVTVSS	concentration-dependent inhibition	concentration-dependent inhibition	concentration-dependent inhibition	–	–	–
B8-siSOD1m: VHH-Oligo conjugate of VHH B8 and siSOD1m (conjugate, left off: things letters cannot carry; small tags and cut ends) VHH: EVQLVESGGGVVQPGGSLRLSCAASGEIFSINFMRWYRQAPGKQREWVAGFTRDGSTNYPDSAKGRFTISRDNAKNTVYLQIDSLKPEDTAVYYCYMLDTWGQGTQVTVSS	concentration-dependent inhibition	concentration-dependent inhibition	concentration-dependent inhibition	–	–	–

Second part, led by results:

inhibition of the binding and uptake of the reference compound [2]	inhibition of the binding and uptake of the reference compound [3]	Molecule	inhibition of the binding and uptake of the reference compound [1]	knock-down of SOD1 mRNA ([4]; all muscle tissues tested (gastrocnemius, quadriceps, tibialis anterior), single IV infusion 5 mg/kg (siRNA molar equivalent) (Figure 12))	duration of knock-down ([4]; single IV infusion 5 mg/kg (siRNA molar equivalent))	effect on hSOD1 mRNA levels [5]
concentration-dependent inhibition	concentration-dependent inhibition	C5-siSOD1h: VHH-Oligo conjugate of VHH C5 and siSOD1h; Figure 12 legend: VHH is C5 (conjugate, left off: things letters cannot carry; small tags and cut ends) VHH: EVQLVESGGGVVQPGGSLKLSCVASGTDFSINFIRWYRQAPGKQREFVAGFTATGNTNYADSMKGRFTISRDNTKNAVYLQIDSLKPEDTAVYYCYMLDKWGQGTQVTVSS	concentration-dependent inhibition	60%	more than three months	potent and concentration-dependent hSOD1 mRNA downregulation
concentration-dependent inhibition	concentration-dependent inhibition	B8-siSOD1h: VHH-Oligo conjugate of VHH B8 and siSOD1h (conjugate, left off: things letters cannot carry; small tags and cut ends) VHH: EVQLVESGGGVVQPGGSLRLSCAASGEIFSINFMRWYRQAPGKQREWVAGFTRDGSTNYPDSAKGRFTISRDNAKNTVYLQIDSLKPEDTAVYYCYMLDTWGQGTQVTVSS	concentration-dependent inhibition	–	–	potent and concentration-dependent hSOD1 mRNA downregulation
